# B1: loop-containing duplex (19-mer annealed with 25-mer) (dsDNA)
# DNA 1: ACCACCCTTCGAACCACAC
# DNA 2: GTGTGGTTCGCGCGCGAAGGGTGGT
# Biological target: XPA (UniProt P23025 1-273)
# Experiment: EMSA; XPA pre-incubated with short PAR (16-20-mer), no effect on binding; EMSA: 25 mM Hepes-KOH pH 8.3, 30 mM KCl, 0.4 mM MgCl2, 1 mM EDTA, 10% glycerol, 45 ug/mL BSA, 0.9 mM DTT; 30 min; temperature not stated. Poly(ADP-ribose) overlay binding (XPA, H1, BSA, PBM peptides) not listed: PAR is not DNA/RNA
# Settings: protein: recombinant; tags: His-tag; label: biotin on the 19-mer; duplex of 19-mer and 25-mer with loop on one strand
# XPA, sequence (P23025 whole entry): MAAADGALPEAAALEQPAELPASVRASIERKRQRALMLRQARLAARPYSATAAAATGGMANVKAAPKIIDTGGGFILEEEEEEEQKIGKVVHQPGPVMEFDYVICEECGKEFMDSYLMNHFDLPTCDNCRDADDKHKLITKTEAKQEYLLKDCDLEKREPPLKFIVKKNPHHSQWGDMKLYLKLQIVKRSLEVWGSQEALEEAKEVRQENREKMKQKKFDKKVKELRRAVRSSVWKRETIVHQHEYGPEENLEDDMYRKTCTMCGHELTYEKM
binder,measurement,value
B1,binding result,binds

# Source: paper PMC4160017, “Poly(ADP‐ribose)‐mediated interplay of XPA and PARP1 leads to reciprocal regulation of protein function”
